Laboratory results published in patent US11879149B2, “Quantification method of ethanolamine phosphate, oxidoreductase for quantification, composition for quantification, kit for quantification and sensor for quantification” (KIKKOMAN CORPORATION, priority 2018, dated 2024).

Tests used:
[1] = Oxidase activity measurement and pH dependence of AgPEAOX (4-AA/TOOS/POD, A555); assay type: biochemical
Method: Oxidase activity was measured for the expressed, purified AgPEAOX by the methods described above. After incubating 609 μl of a reagent consisting of the composition of Table 5 at 37° C. for 5 minutes, 21 μl of a substrate solution (1500 mM EAP) was added and mixed, and the amount of change at A555 (ΔAS) per 1 minute at 37° C. was measured using the spectrophotometer (U-3900, manufactured by Hitachi High-Tech Science Corporation).
Next, 21 μl of ion-exchanged water was added instead of the substrate solution and mixed, and the amount of change at A555 (ΔA0) per 1 minute at 37° C. was measured. […]
The oxidase activity was calculated based on the following formula: Oxidase activity (U/ml)=(ΔAS−ΔA0)×630×df/(39.2×0.5×x)=32.1×(ΔAS−ΔA0)×df/x • 39.2: Millimolar extinction coefficient (mM^−1cm^−1) of 4-AA-TOOS Condensation dye for 555 nm-wavelength light • df: Dilution rate of enzyme solution (pH-Dependence Measurement of Catalytic Reaction of AgPEAOX)
When the pH dependence of catalytic reaction of AgPEAOX was measured, the activity was measured by replacing Bicine-NaOH buffer solution pH 8.5 contained in the reagent for activity measurement in Table 5 with a potassium phosphate buffer solution, MOPS-NaOH buffer solution, or Bicine-NaOH adjusted to a predetermined pH.

[2] = Dehydrogenase activity measurement of AgPEAOX (1-MPES/WST-1, A438); assay type: biochemical; conditions: pH 8.5; final concentration of 50 mM EAP; 37° C.
Method: After incubation of 609 μl of the reagent consisting of the composition of Table 3 for 5 minutes at 37° C., 21 μl of the substrate solution (1500 mM EAP) was added and mixed, and the amount of change at A438 (ΔAS) per 1 minute at 37° C. was measured using the spectrophotometer (U-3900, manufactured by Hitachi High-Tech Science Corporation).
Next, 21 μl of ion-exchanged water was added instead of the substrate solution and mixed, and the amount of change at A438 (ΔA0) per 1 minute at 37° C. was measured. 1-methoxy-5-ethylphenazinium ethyl sulfate (1-MPES), and 2-(4-iodophenyl)-3-(4-nitrophenyl)-5-(2,4-disulfophenyl)-2H-tetrazolium monosodium salt (WST-1) manufactured by DOJINDO LABORATORIES were used.
Dehydrogenase activity was calculated based on the following formula: Dehydrogenase activity (U/ml)=(ΔAS−ΔA0)×630×df/(37.0×x)=17.0×(ΔAS−ΔA0)×df/x • 37.0: Millimolar extinction coefficient (mM^−1 cm^−1) of WST-1 formazan dye for 438 nm-Wavelength Light • df: Dilution rate of enzyme solution (Quantification of EAP by AgPEAOX)

With “AgPEAOX: phenylethylamine oxidase derived from Arthrobacter globiformis, UniProt ID P46881, SEQ ID NO: 9” the “oxidase activity of purified AgPEAOX solution” value ([1]; pH 8.5, final concentration of 50 mM EAP, 37° C.) was 2.29 U/ml (*purified AgPEAOX solution), the “optimum pH for the catalytic reaction (oxidase activity)” value ([1]; potassium phosphate, MOPS-NaOH or Bicine-NaOH buffers, FIG. 3) was 8.5 and the “dehydrogenase activity of purified AgPEAOX solution” value [2] was 0.069 U/ml (*purified AgPEAOX solution).
